In patent publication US20190153092A1 (NBE THERAPEUTICS, published 2019) one finds Kd, koff and kon data, which are given here for twelve molecules.

The target of experiment [1] is T1, StrepII-tagged ROR1-extracellular domain (human) (human, UniProt Q01973 30-406).
T1 construct: extracellular domain; also called ROR1-strep; soluble ROR1-strep
Put plainly: SPR (Biacore T200), purified mAb captured by anti-human Fc, ROR1-strep 2.5-20 nM as analyte, 1:1 model, 25 C. The procedure:
ROR1-strep was diluted in running buffer using 2-fold serial dilutions ranging from 20 nM to 2.5 nM. Association was measured at a flow of 30 μl/min for 120 s, and dissociation was followed for 200 s. Curves were fitted using 30 s dissociation due to upper plateau formation at later timepoints. Capture levels ranged from 29.1 RU to 57.7 RU.
In general terms: SPR reads the build-up and loss of mass on a sensor chip optically.

Experiment [2] addresses T1, StrepII-tagged ROR1-extracellular …. As to the kind of experiment: SPR (Biacore T200), IgG from HEK293T supernatant captured by anti-human Fc, ROR1-strep 2.5-20 nM as analyte, 1:1 model, 25 C. Here is the method:
For initial determination of huR12 clone affinities and parental R12 using transient HEK293T supernatants, IgG expression vectors were transiently transfected into 293T cells and IgG titers in supernatants were quantified by ELISA. For SPR, supernatants were diluted to 1 μg/ml IgG with running buffer (HBS-EP+ pH 7.4 (10 mM HEPES, 150 mM NaCl, 3 mM EDTA, 0.05% Tween 20)) and captured for 200 s with a flow of 30 μl/min. ROR1-strep was diluted in running buffer using 2-fold serial dilutions ranging from 20 nM to 2.5 nM. Association was measured at a flow of 30 μl/min for 120 s, and dissociation was followed for 1000 s. Capture levels ranged from 26.9 RU to 54.1 RU.

Experiment [3] shares this target. As to the kind of experiment: SPR (Biacore T200), purified mAb captured by goat anti-human Fc-gamma IgG, ROR1-strep 1.25 to 20 nM, 120 s association, 1000 s dissociation, 1:1 model. Here is the method:
FIG. 13: Comparison of affinities of humanized and parental R12 mAbs determined by SPR using purified antibody. The three humanized R12 mAbs indicated were expressed at large scale in HEK293T cells, purified by Protein A affinity chromatography and subjected to SPR analysis for determination of affinity towards soluble ROR1-strep. Antibodies were captured using a goat α-human Fc-gamma-specific IgG. ROR1-strep was diluted in running buffer using 2-fold serial dilutions ranging from 1.25 nM to 20 nM. Association was measured 120 s, and dissociation was followed for 1000 s. Capture levels ranged from 26.9 RU to 54.1 RU.

T1 sequence (Q01973 other isoform, or with tags, fused parts or gaps): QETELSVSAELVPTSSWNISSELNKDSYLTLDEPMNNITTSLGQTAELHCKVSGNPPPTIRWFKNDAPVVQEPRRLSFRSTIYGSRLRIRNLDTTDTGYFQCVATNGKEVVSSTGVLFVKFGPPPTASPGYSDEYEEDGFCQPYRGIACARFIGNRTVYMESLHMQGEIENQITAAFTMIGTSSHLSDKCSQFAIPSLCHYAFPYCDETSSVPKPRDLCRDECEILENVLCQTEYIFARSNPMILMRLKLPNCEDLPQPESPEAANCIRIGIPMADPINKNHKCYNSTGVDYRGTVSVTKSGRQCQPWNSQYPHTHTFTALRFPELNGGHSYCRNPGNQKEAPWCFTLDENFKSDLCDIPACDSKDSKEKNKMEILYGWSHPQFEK

B1: chimeric mAb 2A2 (mouse variable regions, human IgG1/kappa constant regions) (antibody, V domains shown)
VH: QVQLQQSGAELVRPGASVTLSCKASGYTFSDYEMHWVIQTPVHGLEWIGAIDPETGGTAYNQKFKGKAILTADKSSSTAYMELRSLTSEDSAVYYCTGYYDYDSFTYWGQGTLVTVSA
VL: DIVMTQSQKIMSTTVGDRVSITCKASQNVDAAVAWYQQKPGQSPKLLIYSASNRYTGVPDRFTGSGSGTDFTLTISNMQSEDLADYFCQQYDIYPYTFGGGTKLEIK
notes: also called chim 2A2; parental mAb 2A2
In experiment [1], B1 registered a Kd of 5.7 nM, a dissociation rate constant (koff) of 0.00968 s⁻¹ and a kon of 1.69e+06 M⁻¹ s⁻¹.

B2: rbQ11, humanized from R11 (antibody, human IgG1, V domains shown)
VH: EVQLVQSGGGLVQPGGSLRLSCAASGSDINDYPISWVRQAPGKGLEWVSFINSGGSTWYASWVKGRFTISRDNAKNSLYLQMNSLRDDDTATYFCARGYSTYYGDFNIWGQGTLVTVSS
VL: DIVMTQSPSSLSASVGDRVTITCQASQSIDSNLAWFQQKPGKAPKSLIYRASNLASGVPSKFSGSGSGTDFTLTISSLQREDAATYYCLGGVGNVSYRTSFGGGTKVEIK
notes: Human IgG1/kappa, expressed in 293T cells and purified; also called huR11-Q11; rbQ11-32
Regarding B2, in experiment [1], the Kd turned out to be 6.1 nM, the off-rate constant (koff) worked out at 0.00498 s⁻¹ and the kon was found to be 821000 M⁻¹ s⁻¹.

B3: rbD4, humanized from R11 (antibody, human IgG1, V domains shown)
VH: EVQLVESGGGLVQPGRSLRLSCTASGSDINDYPISWFRQAPGKGLEWVGFINSGGSTWYASWVKGRFTISRDDSKSIAYLQMNSLKTDDTATYFCARGYSTYYGDFNIWGQGTTVTVSS
VL: DVVMTQSPSSLSASVGDRVTITCQASQSIDSNLAWFQQKPGKAPNLLIYRASNLASGVPSRFSGSGSGTEFTLTISSLQREDAATYYCLGGVGNVSYRTSFGQGTKVEIK
notes: Human IgG1/kappa, expressed in 293T cells and purified; also called huR11-D4; rbD4-32
In experiment [1], B3 had a Kd of 9 nM, a koff of 0.0071 s⁻¹ and an on-rate constant (kon) of 785000 M⁻¹ s⁻¹.

B4: rbQ12, humanized from R11 (antibody, human IgG1, V domains shown)
VH: EVQLVESGGGLVQPGGSLRLSCAASGSDINDYPISWVRQAPGKGLEWVSFINSGGSTWYASWVKGRFTISRDNAKNSLYLQMNSLRADDTATYFCARGYSTYYGDFNIWGQGTMVTVSS
VL: EIVMTQSPSSLSASVGDRVTITCQASQSIDSNLAWFQQKPGKAPNLLIYRASNLASGVPSRFSGSGSGTEFTLTISSLQREDAATYYCLGGVGNVSYRTSFGQGTKVEIK
notes: Human IgG1/kappa, expressed in 293T cells and purified; also called huR11-Q12; rbQ12-40
With B4, in experiment [1], the Kd stood at 14.2 nM, the koff is 0.0104 s⁻¹ and the kon came to 733000 M⁻¹ s⁻¹.

B5: huR12_4, humanized from R12 (antibody, human IgG1, V domains shown)
VH: QVQLVESGGELVQPGGSLTLSCKASGFDFSAYYMSWVRQAPGKGLEWIATIYPSSGKTYYAASVQGRFTISADNAKNTVYLQMNSLTAADTATYFCARDSYADDGALFNIWGKGTLVTVSS
VL: QLVLTQSPSVSAALGSSAKITCTLSSAHKTDTIDWYQQLAGQAPRYLMYVQSDGSYEKRSGVPDRFSGSASGADRYLAISRVQADDEADYYCGADYIGGYVFGGGTQLTVLG
notes: Human IgG1 with lambda light chain
On to B5, for which, in experiment [2], the dissociation constant (Kd) worked out at 0.091 nM, the koff amounted to 9.93e-05 s⁻¹ and the kon is 1.09e+06 M⁻¹ s⁻¹. In addition, in experiment [3], the dissociation constant Kd was 0.0571 nM.

B6: huR12_7, humanized from R12 (antibody, human IgG1, V domains shown)
VH: QVQLVESGGELVQPGGSLTLSCKASGFDFSAYYMSWVRQAPGKGLEWIATIYPSSGKTYYAASVQGRFTISADNAKNTVSLQMNSLTAADTATYFCARDSYADDGALFNIWGKGTLVTVSS
VL: QLVLTQSPSVSAALGSSAKITCTLSSAHKTDTIDWYQQLAGQAPRYLMYVQSDGSYEKRSGVPDRFSGSSSGADRYLIISSVQADDEADYYCGADYIGGYVFGGGTQLTVLG
notes: as for B5
Take B6: in experiment [2], the dissociation constant Kd was determined as 0.11 nM, the dissociation rate constant (koff) came out at 0.000116 s⁻¹ and the kon worked out at 1.05e+06 M⁻¹ s⁻¹. Moreover, binding in experiment [3] was characterised by a dissociation constant (Kd) of 0.051 nM.

B7: hu2A2-D23, humanized from 2A2 (antibody, human IgG1, V domains shown)
VH: QVQLVESGAEVKKPGASVKLSCKASGYTFSDYEMHWVRQAPGQRLEWMGAIDPETGGTAYNQKFKGRVTITVDKSASTAYMELSSLRSEDTAVYYCTGYYDYDSFTYWGPGTTVTVSS
VL: DIVMTQSPSTLSASVGDRVTITCKASQNVDAAVAWYQQKPGTAPKLLIYSASNRYTGVPSRFSGSGSGTEFTLTISSLQSEDLADYFCQQYDIYPYTFGQGTKLEIK
notes: Human IgG1/kappa, expressed in 293T cells and purified; also called msD23-19
B7: in experiment [1], binding was put at a Kd of 8 nM, the koff was determined as 0.0138 s⁻¹ and the kon stood at 1.72e+06 M⁻¹ s⁻¹.

B8: hu2A2-D16, humanized from 2A2 (antibody, human IgG1, V domains shown)
VH: EVQLVESGAEVKKPGASVKVSCKASGYTFSDYEMHWVRQAPGQGLEWVGAIDPETGGTAYNQKFKGRVTMTRDTSTSTVYMELSSLRSEDTAVYYCTGYYDYDSFTYWGQGTLVTVSS
VL: DIQMTQSPSSLSASVGDRVTITCKASQNVDAAVAWYQQKPGKAPKLLIYSASNRYTGIPTRFSGSGSGTDFTLTISSLQSEDLADYFCQQYDIYPYTFGQGTKVEIK
notes: Human IgG1/kappa, expressed in 293T cells and purified; also called msD16-7
Turning to B8, in experiment [1], the dissociation constant Kd is 10.9 nM, the dissociation rate constant (koff) was determined as 0.0189 s⁻¹ and the kon was found to be 1.73e+06 M⁻¹ s⁻¹.

B9: hu2A2b-Q11, humanized from 2A2 (antibody, human IgG1, V domains shown)
VH: EVQLVQSGAEVKKPGASVKVSCKASGYTFSDYEMHWVRQAPGQGLEWLGAIDPETGGTAYNQKFKGRVTMTGDTSISTAYMELSRLTSDDTAVYYCTGYYDYDSFTYWGQGTLVSVSS
VL: DIQMTQSPSSLSTSVGDRVTITCKASQNVDAAVAWYQQKPGKAPKLLIYSASNRYTGVASRFSGSGSGTDFTFTISSLQSEDLADYFCQQYDIYPYTFGQGTKLEIK
notes: also called hu2A2-Q11; msQ11-3
For the molecule B9, in experiment [1], the Kd is 9.9 nM, the koff is 0.0173 s⁻¹ and the kon was determined as 1.75e+06 M⁻¹ s⁻¹.

B10: Chimeric mAb R12 (rabbit variable regions, human IgG1/lambda constant regions) (antibody, V domains shown)
VH: QEQLVESGGRLVTPGGSLTLSCKASGFDFSAYYMSWVRQAPGKGLEWIATIYPSSGKTYYATWVNGRFTISSDNAQNTVDLQMNSLTAADRATYFCARDSYADDGALFNIWGPGTLVTISS
VL: ELVLTQSPSVSAALGSPAKITCTLSSAHKTDTIDWYQQLQGEAPRYLMQVQSDGSYTKRPGVPDRFSGSSSGADRYLIIPSVQADDEADYYCGADYIGGYVFGGGTQLTVT
notes: Full-length IgG1 with human gamma 1 and lambda constant regions; also called parental mAb R12
Regarding B10, in experiment [2], binding was put at a Kd of 1.03 nM, the koff came to 0.000361 s⁻¹ and the kon was 349000 M⁻¹ s⁻¹. Besides, binding in experiment [3] was put at a Kd of 0.427 nM.

B11: huR12_11, humanized from R12 (antibody, human IgG1, V domains shown)
VH: QVQLVESGGALVQPGGSLTLSCKASGFDFSAYYMSWVRQAPGKGLEWIATIYPSSGKTYYAASVQGRFTISADNAKNTVYLQMNSLTAADTATYFCARDSYADDGALFNIWGQGTLVTVSS
VL: QLVLTQSPSVSAALGSSAKITCTLSSAHKTDTIDWYQQLAGQAPRYLMYVQSDGSYEKRSGVPDRFSGSSSGADRYLIISSVQADDEADYYCGADYIGGYVFGGGTQLTVG
notes: as for B5
Consider B11, for which, in experiment [2], the Kd amounted to 0.084 nM, the koff was 9.65e-05 s⁻¹ and the kon is 1.15e+06 M⁻¹ s⁻¹. This molecule also returned a Kd in experiment [3] of 0.0616 nM.

B12: huR12_16, humanized from R12 (antibody, human IgG1, V domains shown)
VH: QVQLVESGGELVTPGGSLTLSCKASGFDFSAYYMSWVRQAPGKGLEWIASIYPSSGKTYYAAAVQGRFTISADNAKNTVYLQMNSLTAADTATYFCARDSYADDGALFNIWGQGTLVTVSS
VL: QLVLTQSPSVSAALGSSAKITCTLSSAHKTDTIDWYQQLAGQAPRYLMYVQSDGSYEKRSGVPDRFSGSSSGADRYLIISSVQADDEADYYCGADYIGGYVFGGGTQLTVG
notes: as for B5
For the molecule B12, in experiment [2], the Kd amounted to 0.092 nM, the koff came to 8.79e-05 s⁻¹ and the association rate constant (kon) amounted to 960000 M⁻¹ s⁻¹.

What is called Kd is the concentration at which binding is half-saturated. A higher Kd goes with weaker binding. As usually defined, the koff is a measure of how fast the partners let go of each other. A higher koff goes with a short-lived complex. The kon is the rate constant with which the complex forms. Read a low kon as slow association.
